Molecular target: T1, A2 domain of von Willebrand Factor (vWF-A2, recombinant), P04275
T1 chain: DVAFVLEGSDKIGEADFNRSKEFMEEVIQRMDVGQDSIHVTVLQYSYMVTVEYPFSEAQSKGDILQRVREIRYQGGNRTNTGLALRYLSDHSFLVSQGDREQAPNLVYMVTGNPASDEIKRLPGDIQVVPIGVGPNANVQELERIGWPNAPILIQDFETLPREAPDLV

Protein	enzymatic cleavage of vWF subdomain A2 detected by Western blot
ADAMTS13 fused to the extracellular domain of GPA, expressed on K562 erythroleukemia cells (protein) AAGGILHLELLVAVGPDVFQAHQEDTERYVLTNLNIGAELLRDPSLGAQFRVHLVKMVILTEPEGAPNITANLTSSLLSVCGWSQTINPEDDTDPGHADLVLYITRFDLELPDGNRQVRGVTQLGGACSPTWSCLITEDTGFDLGVTIAHEIGHSFGLEHDGAPGSGCGPSGHVMASDGAAPRAGLAWSPCSRRQLLSLLSAGRARCVWDPPRPQPGSAGHPPDAQPGLYYSANEQCRVAFGPKAVACTFAREHLDMCQALSCHTDPLDQSSCSRLLVPLLDGTECGVEKWCSKGRCRSLVELTPIAAVHGRWSSWGPRSPCSRSCGGGVVTRRRQCNNPRPAFGGRACVGADLQAEMCNTQACEKTQLEFMSQQCARTDGQPLRSSPGGASFYHWGAAVPHSQGDALCRHMCRAIGESFIMKRGDSFLDGTRCMPSGPREDGTLSLCVSGSCRTFGCDGRMDSQQVWDRCQVCGGDNSTCSPRKGSFTAGRAREYVTFLTVTPNLTSVYIANHRPLFTHLAVRIGGRYVVAGKMSISPNTTYPSLLEDGRVEYRVALTEDRLPRLEEIRIWGPLQEDADIQVYRRYGEEYGNLTRPDITFTYFQPKPRQAWVWAAVRGPCSVSCGAGLRWVNYSCLDQARKELVETVQCQGSQQPPAWPEACVLEPCPPYWAVGDFGPCSASCGGGLRERPVRCVEAQGSLLKTLPPARCRAGAQQPAVALETCNPQPCPARWEVSEPSSCTSAGGAGLALENETCVPGADGLEAPVTEGPGSVDEKLPAPEPCVGMSCPPGWGHLDATSAGEKAPSPWGSIRTGAQAAHVWTPAAGSCSVSCGRGLMELRFLCMDSALRVPVQEELCGLASKPGSRREVCQAVPCPARWQYKLAACSVSCGRGVVRRILYCARAHGEDDGEEILLDTQCQGLPRPEPQEACSLEPCPPRWKVMSLGPCSASCGLGTARRSVACVQLDQGQDVEVDEAACAALVRPEASVPCLIADCTYRWHVGTWMECSVSCGDGIQRRRDTCLGPQAQAPVPADFCQHLPKPVTVRGCWAGPCVGQGTPSLVPHEEAAAPGRTTATPAGASLEWSQARGLLFSPAPQPRRLLPGPQENSVQSSACGRQHLEPTGTIDMRGPGQADCAVAIGRPLGEVVTLRVLESSLNCSAGDMLLLWGRLTWRKMCRKLLDMTFSSKTNTLVVRQRCGRPGGGVLLRYGSQLAPETFYRECDMQLFGPWGEIVSPSLSPATSNAGGCRLFINVAPHARIAIHALATNMGAGTEGANASYILIRDTHSLRTTAFHGQQVLYWESESSQAEMEFSEGFLKAQASLRGQYWTLQSWVPEMQDPQSWKGKEGTYPYDVPDYALSTTEVAMHTSTSSSVTKSYISSQTNDTHKRDTYAATPRAHEVSEISVRTVYPPEEETGERVQLAHHFSEPEITLIIFGVMAGVIGTILLISYGIRRLIKKSPSDVKPLPSPDTDVPLSSVEIENPETSDQ	the cell-expressed ADAMTS13 (lane 4) appears more active than the recombinant ADAMTS13 (lane 2), despite the fact that there is 6× less cell-expressed ADAMTS13 (13ng) than recombinant ADAMTS13 (75 ng) in the assay
recombinant ADAMTS13 (protein) AAGGILHLELLVAVGPDVFQAHQEDTERYVLTNLNIGAELLRDPSLGAQFRVHLVKMVILTEPEGAPNITANLTSSLLSVCGWSQTINPEDDTDPGHADLVLYITRFDLELPDGNRQVRGVTQLGGACSPTWSCLITEDTGFDLGVTIAHEIGHSFGLEHDGAPGSGCGPSGHVMASDGAAPRAGLAWSPCSRRQLLSLLSAGRARCVWDPPRPQPGSAGHPPDAQPGLYYSANEQCRVAFGPKAVACTFAREHLDMCQALSCHTDPLDQSSCSRLLVPLLDGTECGVEKWCSKGRCRSLVELTPIAAVHGRWSSWGPRSPCSRSCGGGVVTRRRQCNNPRPAFGGRACVGADLQAEMCNTQACEKTQLEFMSQQCARTDGQPLRSSPGGASFYHWGAAVPHSQGDALCRHMCRAIGESFIMKRGDSFLDGTRCMPSGPREDGTLSLCVSGSCRTFGCDGRMDSQQVWDRCQVCGGDNSTCSPRKGSFTAGRAREYVTFLTVTPNLTSVYIANHRPLFTHLAVRIGGRYVVAGKMSISPNTTYPSLLEDGRVEYRVALTEDRLPRLEEIRIWGPLQEDADIQVYRRYGEEYGNLTRPDITFTYFQPKPRQAWVWAAVRGPCSVSCGAGLRWVNYSCLDQARKELVETVQCQGSQQPPAWPEACVLEPCPPYWAVGDFGPCSASCGGGLRERPVRCVEAQGSLLKTLPPARCRAGAQQPAVALETCNPQPCPARWEVSEPSSCTSAGGAGLALENETCVPGADGLEAPVTEGPGSVDEKLPAPEPCVGMSCPPGWGHLDATSAGEKAPSPWGSIRTGAQAAHVWTPAAGSCSVSCGRGLMELRFLCMDSALRVPVQEELCGLASKPGSRREVCQAVPCPARWQYKLAACSVSCGRGVVRRILYCARAHGEDDGEEILLDTQCQGLPRPEPQEACSLEPCPPRWKVMSLGPCSASCGLGTARRSVACVQLDQGQDVEVDEAACAALVRPEASVPCLIADCTYRWHVGTWMECSVSCGDGIQRRRDTCLGPQAQAPVPADFCQHLPKPVTVRGCWAGPCVGQGTPSLVPHEEAAAPGRTTATPAGASLEWSQARGLLFSPAPQPRRLLPGPQENSVQSSACGRQHLEPTGTIDMRGPGQADCAVAIGRPLGEVVTLRVLESSLNCSAGDMLLLWGRLTWRKMCRKLLDMTFSSKTNTLVVRQRCGRPGGGVLLRYGSQLAPETFYRECDMQLFGPWGEIVSPSLSPATSNAGGCRLFINVAPHARIAIHALATNMGAGTEGANASYILIRDTHSLRTTAFHGQQVLYWESESSQAEMEFSEGFLKAQASLRGQYWTLQSWVPEMQDPQSWKGKEGT	the cell-expressed ADAMTS13 (lane 4) appears more active than the recombinant ADAMTS13 (lane 2), despite the fact that there is 6× less cell-expressed ADAMTS13 (13ng) than recombinant ADAMTS13 (75 ng) in the assay

— US20180135012A1
